Residue numbers refer to the chain shown, from its start. Numbers in names are those of the source.
B1: E01-V31A: E01 point mutant V31A (protein)
chain: MKIEEHHHHHHHHHHGGSTYKLILNGKTLKGETTTEAVDVYDAFDVFFAYAASNFSDFDDWTYDDATKTFTVTEGGSDK
B2: E01-S38K: E01 point mutant S38K (protein)
chain: B1 chain with A49V, S56K
B3: E01-S35R: E01 point mutant S35R (protein)
chain: B1 chain with A49V, S53R
B4: E01-D39F: E01 point mutant D39F; scaffold for double mutants (protein)
chain: B1 chain with A49V, D57F
B5: E01-S35G: E01 point mutant S35G (protein)
chain: B1 chain with A49V, S53G
B6: E01-S35E: E01 point mutant S35E (protein)
chain: B1 chain with A49V, S53E
B7: E01-F40I: E01 point mutant F40I (protein)
chain: B1 chain with A49V, F58I
B8: E01-V22L: E01 point mutant V22L, His-tagged, expressed in E. coli (protein)
chain: B1 chain with V40L, A49V
B9: E01-A34S: E01 point mutant A34S (protein)
chain: B1 chain with A49V, A52S
B10: E01-D27E: E01 point mutant D27E (protein)
chain: B1 chain with D45E, A49V
B11: E01-D41V: E01 point mutant D41V (protein)
chain: B1 chain with A49V, D59V
B12: E01-D24G: E01 point mutant D24G (protein)
chain: B1 chain with D42G, A49V
B13: E01-S38G: E01 point mutant S38G (protein)
chain: B1 chain with A49V, S56G
B14: E01-D39F/S35E: E01 double mutant D39F/S35E (protein)
chain: B1 chain with A49V, S53E, D57F
B15: E01-D39F/V31A: E01 double mutant D39F/V31A (protein)
chain: B1 chain with D57F
B16: E01-D39F/S35R: E01 double mutant D39F/S35R (protein)
chain: B1 chain with A49V, S53R, D57F
B17: E01-D39F/V22L: E01 double mutant D39F/V22L (protein)
chain: B1 chain with V40L, A49V, D57F
B18: E01-D39F/F40I: E01 double mutant D39F/F40I (protein)
chain: B1 chain with A49V, D57F, F58I
B19: E01-D39F/S38G: E01 double mutant D39F/S38G (protein)
chain: B1 chain with A49V, S56G, D57F
B20: E01-D39F/D27E: E01 double mutant D39F/D27E (protein)
chain: B1 chain with D45E, A49V, D57F
B21: E01-D39F/A34S: E01 double mutant D39F/A34S (protein)
chain: B1 chain with A49V, A52S, D57F
B22: E01-D39F/S35G: E01 double mutant D39F/S35G (protein)
chain: B1 chain with A49V, S53G, D57F

These molecules were tested against D-VEGF (assay: SPR affinity measurements of GB1 peptidic compounds on immobilized D-VEGF). Details: Table 1; target D-VEGF.
Assay type: binding
Method: VEGF binding compounds were expressed. Binding affinities were measured using the […] SPR system. SPR analysis was performed on a ProteOn XPR36 Protein Interaction Array System (BioRad). Chemically synthesized L-VEGF, D-VEGF and VEGF165 (Peprotech) were immobilized in 50 mM Sodium Acetate (pH 5.5) to a non-dilute EDAC/sulfo-NHS activated GLC surface on separate channels using a flow rate of […] for 5 minutes in the vertical direction. Immobilization levels were monitored to ensure immobilization of approximately 500 response units of each protein. The domains were then stabilized with PBS for 30 seconds and 0.85% H3PO4 for 18 seconds each at […]. GB1 variants were diluted in PBS plus 0.05% Tween 20 at a starting concentration of 200 nM. The binders were further diluted with PBST 2-fold in series to produce 5 concentrations of variants. A PBST blank was also included. GB1 variant injection parameters were: […], 60 seconds contact time, and 600 seconds dissociation time, in the horizontal direction. VEGF proteins were regenerated with an injection of 0.85% H3PO4 at a flow rate of […] followed by a PBST wash of 30 seconds at […] flow rate.

| Kd | Molecule | Koff |
| --- | --- | --- |
| 7.8 nM | B1 | 0.00194 s⁻¹ |
| 13.7 nM | B2 | 0.0028 s⁻¹ |
| 9.3 nM | B3 | 0.00258 s⁻¹ |
| 4.23 nM | B4 | 0.00213 s⁻¹ |
| 8.79 nM | B5 | 0.00348 s⁻¹ |
| 7.47 nM | B6 | 0.00304 s⁻¹ |
| 11.1 nM | B7 | 0.00441 s⁻¹ |
| 5.8 nM | B8 | 0.00239 s⁻¹ |
| 7.8 nM | B9 | 0.00278 s⁻¹ |
| 9.6 nM | B10 | 0.00333 s⁻¹ |
| 67.5 nM | B11 | 0.0333 s⁻¹ |
| 14.9 nM | B12 | 0.00247 s⁻¹ |
| 9 nM | B13 | 0.00387 s⁻¹ |

Same assay, conditions: Table 1; target D-VEGF; E01 point mutants expressed in E. coli

| Molecule | Kon |
| --- | --- |
| B1 | 250000 M⁻¹ s⁻¹ |
| B2 | 204000 M⁻¹ s⁻¹ |
| B3 | 279000 M⁻¹ s⁻¹ |
| B4 | 504000 M⁻¹ s⁻¹ |
| B5 | 396000 M⁻¹ s⁻¹ |
| B6 | 407000 M⁻¹ s⁻¹ |
| B7 | 398000 M⁻¹ s⁻¹ |
| B8 | 411000 M⁻¹ s⁻¹ |
| B9 | 356000 M⁻¹ s⁻¹ |
| B10 | 347000 M⁻¹ s⁻¹ |
| B11 | 493000 M⁻¹ s⁻¹ |
| B12 | 166000 M⁻¹ s⁻¹ |
| B13 | 428000 M⁻¹ s⁻¹ |

Same assay, conditions: Table 2; GB1-E01 double mutants; target D-VEGF

| Kd | Molecule | Koff | Kon |
| --- | --- | --- | --- |
| 4.52 nM | B14 | 0.00205 s⁻¹ | 454000 M⁻¹ s⁻¹ |
| 2.99 nM | B15 | 0.00167 s⁻¹ | 558000 M⁻¹ s⁻¹ |
| 3.48 nM | B4 | 0.00132 s⁻¹ | 380000 M⁻¹ s⁻¹ |
| 5.35 nM | B16 | 0.00183 s⁻¹ | 341000 M⁻¹ s⁻¹ |
| 1.14 nM | B17 | 0.00082 s⁻¹ | 719000 M⁻¹ s⁻¹ |
| 2.29 nM | B18 | 0.00138 s⁻¹ | 602000 M⁻¹ s⁻¹ |
| 2.83 nM | B19 | 0.00131 s⁻¹ | 463000 M⁻¹ s⁻¹ |
| 3.1 nM | B20 | 0.00158 s⁻¹ | 511000 M⁻¹ s⁻¹ |
| 4.49 nM | B21 | 0.00174 s⁻¹ | 387000 M⁻¹ s⁻¹ |
| 5.4 nM | B22 | 0.00193 s⁻¹ | 358000 M⁻¹ s⁻¹ |

Same assay, conditions: notes to Table 5; relative to E01

| Molecule | effect of point mutation on affinity |
| --- | --- |
| B4 | ^3 D39F point mutant increased affinity |
| B8 | ^2 V22L point mutant increased affinity; |

From patent US20120178682A1, “GB1 Peptidic Compounds and Methods for Making and Using the Same” (priority 2010, published 2012)
